Test results reported in article PMC5123055.

Columns and labels:
ribosome (S. cerevisiae) = assay: quantitative ribosome binding assay (ribosomes isolated from cell extract, immunoblot with αmyc); details: ribosomes isolated under low-salt conditions; parent: 45.4
[1] = biological target: ribosome (S. cerevisiae) (S. cerevisiae (endogenous in yeast extract)); assay: co-sedimentation; ribosome binding assay: cell extract (cycloheximide) spun through a low-salt sucrose cushion (25% sucrose, 20 mM Hepes/KOH pH 7.4, 120 mM potassium acetate, 2 mM magnesium acetate), 400,000 g, 4 °C, 25 min; immunoblot of supernatant and ribosomal pellet; strains: wild type, Δzuo1Δssz1, RAC-H128Q, Δssb1Δssb2 with Ssb1 variants

| Substance | response (% of total mycSsb1) (ribosome (S. cerevisiae)) | ribosome-binding, percent of the mycSsb1 control [1] [%] |
| --- | --- | --- |
| N-terminally myc-tagged Ssb1 (mycSsb1) (from UniProt P11484) K567E; R568E; K603D; R604D | 3 | – |
| N-terminally myc-tagged Ssb1 (mycSsb1) (from UniProt P11484) K567E; R568E; R596D; K597D; K603D; R604D | 1.9 | – |
| mycSsb1 D1 (R596D/K597D) (from UniProt P11484 1-613) (natural protein) | – | < 50 |
| mycSsb1 D2 (K603D/R604D) (from UniProt P11484 1-613) (natural protein) | – | < 50 |
| mycSsb1 LBC (K567E/R568E) (from UniProt P11484 1-613) (natural protein) | – | < 50 |
